B2: Human IL10R1 (receptor)
chain: HGTELPSPPSVWFEAEFFHHILHWTPIPNQSESTCYEVALLRYGIESWNSISNCSQTLSYDLTAVTLDLYHSNGYRARVRAVDGSRHSNWTVTNTRFSVDEVTLTVGSVNLEIHNGFILGKIQLPRPKMAPANDTYESIFSHFREYEIAIRKVPGNFTFTHKKVKHENFSLLTSGEVGEFCVQVKPSVASRSNKGMWSKEECISLTRQYFTVTN
notes: Bought recombinant protein coated on the ELISA plate; also called hIL10R1; human IL10R1 proteins

Experiments:
[1] = target: B2; test: ELISA, human IL10R1 coated at 5 ug/mL, detection with goat anti-hIgG-HRP
Description: Human IL10R1 (R&D, 9100-R1-050) was diluted to 5 μg/mL with coating buffer (50 mM Na₂CO₃, NaHCO₃ pH 9.6), 100 μL/well, overnight at 4° C. After washing, the plates were sealed with 3% BSA-PBS for 1 h at 37° C. The heterodimer proteins of the present disclosure were respectively diluted from 2000 ng/mL and were then diluted 2-fold to a total of 11 concentrations, with the diluent (1% BSA-PBS) as a control, and incubated for 2 h at 37° C. Goat anti-hIgG-HRP (Sigma, A0170) was added and incubated for 1 h at 37° C. The soluble one-component TMB substrate developing solution was added, and the developing was performed in dark at room temperature for 5-10 min. 2N H₂SO₄ 50 μL/well was added to terminate the color development reaction.

[2] = target: Erb-(IL10)2; test: ELISA, human IL10R1 coated

B1: reverse-(IL10)2-Fc9-a (Fc fusion)
chain 1: EPKSSDKTHTCPPCPAPELLGGPSVFLFPPKPKDTLMISRTPEVTCVVVDVSHEDPEVKFNWYVDGVEVHNAKTKPREEQYNSTYRVVSVLTVLHQDWLNGKEYKCKVSNKALPAPIEKTISKAKGQPREPQVYTLPPSRDELTKNQVSLSCGVKGFYPSDIAVEWESNGQPENNYKTTPPVLDSDGSFKLASKLTVDKSRWQQGNVFSCSVMHEALHNHYTQKSLSLSPGKGGGGSGGGGSGGGGSSPGQGTQSENSCTHFPGNLPNMLRDLRDAFSRVKTFFQMKDQLDNLLLKESLLEDFKGYLGCQALSEMIQFYLEEVMPQAENQDPDIKAHVNSLGENLKTLRLRLRRCHRFLPCENKSKAVEQVKNAFNKLQEKGIYKAMSEFDIFINYIEAYMTMKIRNGGGGSGGGGSGGGGSSPGQGTQSENSCTHFPGNLPNMLRDLRDAFSRVKTFFQMKDQLDNLLLKESLLEDFKGYLGCQALSEMIQFYLEEVMPQAENQDPDIKAHVNSLGENLKTLRLRLRRCHRFLPCENKSKAVEQVKNAFNKLQEKGIYKAMSEFDIFINYIEAYMTMKIRN
chain 2: DKTHTCPPCPAPELLGGPSVFLFPPKPKDTLMISRTPEVTCVVVDVSHENPEVKFNWYVDGVEVHNAKTKPREEQYNSTYRVVSVLTVLHQDWLNGKEYKCKVSNKALPAPIEKTISKAKGQPREPQVYTLPPSRDELTKNQVSLWCLVKGFYPSDIAVEWESNGQPENNYKTTPPVLDSDGSFFLYSALTVDKSRWQQGNVFSCSVMHEALHNHYTQKSLSLSPGK
notes: purified by protein A only; also called proteinaceous heterodimer of Group C
- EC50 [1]: 0.0123 µg/mL

Binder: B2
- binding result [2]: binds

From patent US20220227827A1 (DINGFU BIOTARGET, published 2022)
